How the values were obtained:
[1] = target: T1, human Axl extracellular domain conjugated to an IgG Fc domain (human, UniProt P30530 26-451); assay: competition ELISA: soluble hAxl-Fc (varied) equilibrated with z10, free z10 caught on plate-coated hMER
T1 construct: extracellular domain; also called hAxl; human Ax1; not shown: IgG Fc domain
T1 sequence (looked up): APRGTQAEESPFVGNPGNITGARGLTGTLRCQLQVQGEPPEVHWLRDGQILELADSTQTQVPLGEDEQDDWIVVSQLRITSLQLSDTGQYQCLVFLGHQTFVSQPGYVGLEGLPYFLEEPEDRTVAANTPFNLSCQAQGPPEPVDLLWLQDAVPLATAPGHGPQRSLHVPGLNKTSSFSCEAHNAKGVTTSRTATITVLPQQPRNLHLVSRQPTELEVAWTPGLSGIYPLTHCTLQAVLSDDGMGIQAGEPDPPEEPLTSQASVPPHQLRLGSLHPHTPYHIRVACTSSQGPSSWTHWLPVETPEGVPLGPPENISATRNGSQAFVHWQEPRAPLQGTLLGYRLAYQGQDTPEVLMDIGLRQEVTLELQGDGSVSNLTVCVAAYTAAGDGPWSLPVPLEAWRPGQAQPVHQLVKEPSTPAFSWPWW
Protocol: Plates were washed three times with PBS 0.1% Tween and blocked with 3% non-fat dry skim milk in PBS for 2 h.
During the saturation step, dilutions of the antigen hAxl (RnD Systems, 154-AL-100), hTyro3 (RnD Systems, 859-DK-100) or mMER (RnD Systems, 591-MR-100)] were prepared at 50 nM as the highest concentration, and serially diluted 1:1 to 0.098 nM in PBS. […] Then, the saturated plate was washed three times with PBS 0.1% Tween and the antigen-antibody mixture was added to the wells in duplicate and incubated for 1 h at room temperature. The plate was then washed three times with PBS 0.1% Tween and incubated with anti-human Alkaline Phosphatase antibody (Sigma, SAB 3701248) at a dilution of 1:3000 in PBS for 1 h at room temperature. After washing three times with PBS 0.1% Tween, 100 uL of Alkaline Phosphatase Yellow (pNPP) liquid substrate system (Sigma, P7998) was added in each well and incubated for 70 min at room temperature. Plates were read at 405 nm and at 570 nm, to correct plate inconsistencies, using Glomax Discover System from Promega The absorbance was plotted as a function of antigen concentration and the Kd was calculated using GraphPad Prism 7.0c.

[2] = target: T2, human MERTK expressed on cells (SKMEL5 melanoma cells; in vitro differentiated M2 macrophages) (human, UniProt Q12866 21-999); assay: flow cytometry, APC-labeled z10 on MERTK-expressing SKMEL5 melanoma cells
T2 construct: Endogenous MERTK of human cells; also called surface MERTK
T2 sequence: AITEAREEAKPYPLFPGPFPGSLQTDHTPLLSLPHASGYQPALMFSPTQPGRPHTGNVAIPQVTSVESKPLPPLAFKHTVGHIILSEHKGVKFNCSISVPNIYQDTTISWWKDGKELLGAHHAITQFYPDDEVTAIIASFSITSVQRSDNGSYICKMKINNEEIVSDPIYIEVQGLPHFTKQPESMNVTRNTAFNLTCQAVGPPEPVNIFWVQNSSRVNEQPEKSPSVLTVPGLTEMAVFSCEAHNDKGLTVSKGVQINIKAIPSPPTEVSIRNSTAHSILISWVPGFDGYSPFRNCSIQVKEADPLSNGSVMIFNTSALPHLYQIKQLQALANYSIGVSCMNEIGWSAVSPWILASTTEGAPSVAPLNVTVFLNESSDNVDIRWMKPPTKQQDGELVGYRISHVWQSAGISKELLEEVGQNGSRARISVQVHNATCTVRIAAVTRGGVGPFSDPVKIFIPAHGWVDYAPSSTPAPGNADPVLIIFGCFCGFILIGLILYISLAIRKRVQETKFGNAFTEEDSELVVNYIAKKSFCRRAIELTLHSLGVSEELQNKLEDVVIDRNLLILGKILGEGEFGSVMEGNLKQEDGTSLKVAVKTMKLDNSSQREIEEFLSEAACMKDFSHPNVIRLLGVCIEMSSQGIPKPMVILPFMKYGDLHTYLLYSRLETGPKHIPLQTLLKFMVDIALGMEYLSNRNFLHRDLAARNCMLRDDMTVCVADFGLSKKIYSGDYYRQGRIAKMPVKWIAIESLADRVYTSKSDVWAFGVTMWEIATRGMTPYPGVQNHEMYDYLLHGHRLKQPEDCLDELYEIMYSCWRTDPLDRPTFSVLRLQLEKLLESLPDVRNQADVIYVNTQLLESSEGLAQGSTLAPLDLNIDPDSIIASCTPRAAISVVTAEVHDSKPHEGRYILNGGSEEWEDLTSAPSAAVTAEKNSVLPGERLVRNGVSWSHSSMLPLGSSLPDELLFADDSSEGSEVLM
Protocol: SKMEL5 cells were harvested with trypsin, washed twice with PBS and strained through a 70 µm filter. 50,000 cells were resuspended in 60 μL FACS buffer (2% BSA, 10 mM EDTA, 25 mM HEPES, 0.1% sodium azide in Ca/Mg-free PBS) containing 10% human AB serum (Sigma, H4522). […] The APC signals from live single cells were analyzed in FlowJo and the MFIs were plotted with GraphPad Prism. Single color control samples were used to create a compensation matrix.

binding result [1]: no binding (tested: 50 nM)
EC50 [2]: 6.7 nM
B1: z10 antibody (antibody, human IgG1, kappa, V domains shown)
VH: QVQLVQSGAEVKKPGASVKVSCKASGYTFTNYGMNWVRQAPGQGLEWMGWINTYTGEPTYADDFKGRVTFTTDTSTSTAYMELRSLRSDDMAVYYCARKSTVVSRYFDVWGQGTTVTVSS
VL: DIQMTQSPSFLSASVGDRVTITCKASQDVGDAVTWYQQKPGKAPKLLIYWASTRHTGVPDRFSGSGSGTDFTLTISSLQPEDFATYYCQQYRSYPLTFGQGTKLEIKR
notes: also called MERTK (z10) antibody

— patent US20200291135A1 (INSPIRNA, published 2020)
